The test system of one series is breast cancer cells. Briefly: HerDox trafficking, immunofluorescence against HerPBK10 in fixed cells. In kind it is cell-based. The protocol: FIG. 15 illustrates HerDox trafficking in breast cancer cells. Cells incubated with HerDox at 37° C. were fixed at the indicated time points and processed for immunofluorescence using an antibody against HerPBK10. Images were captured using confocal microscopy under fluorescence and brightfield. Green, HerPBK10; Red, Dox. n, nucleus Bar, ˜8 microns.
To determine whether Dox remains attached to HerPBK10 during uptake, the inventors used immuno-fluorescence against HerPBK10. […] In fixed cells, nucleolar accumulation was not detectable as in the live cells (FIG. 14 (B)).

For series [1], the system named is heregulin receptors on MDA-MB-435 (HER2+) cells. The series is described as follows: Receptor specificity, competition with free heregulin ligand (eHRG). In kind it is cell-based. The settings on record: eHRG 10× molar excess, HerDox 0.5 uM. The protocol:
FIG. 8 illustrates receptor specificity. MDA-MB-435 (HER2+) cells were incubated with free ligand (eHRG) at 10× molar excess of HerDox for 1 h at 4° C. Media was aspirated to remove free eHRG and fresh media containing HerDox (0.5 uM) was added to cells. Cell survival was measured by MTT assay and represented as a % of relative untreated cell numbers.
The inventors compared the effect of HerDox or Dox alone at equivalent dosages (0.5 uM with respect to Dox concentration) on HER2+ and HER2− breast cancer cells in separate dishes. By three days, HerDox reduced HER2+ cell numbers by over 75% whereas HER2− cell survival was unaffected (FIG. 7). […] These findings emphasize the importance of targeting by showing that the untargeted drug affects nontarget (i.e. HER2−) cells. Importantly, the protein carrier, HerPBK10, alone at the equivalent concentration of protein in HerDox (0.1 uM) had no effect on either cell line (FIG. 7), including a lack of proliferation induction. To test receptor targeting, the inventors used free heregulin ligand (Her or eHRG) as a competitive inhibitor. […] As a final in vitro challenge, the inventors tested whether HerDox induces toxicity specifically to HER2+ cells in a mixed culture of HER2+ and HER2− breast cancer cells. […]

Series [2] can be described thus: HerDox stability under different storage temperatures. In kind it is physicochemical. To be noted: up to 12 days. The protocol: FIGS. 6 (A)-(B) illustrates conjugate stability under different storage conditions, or in serum. As illustrated in FIG. 6 (A), HerDox was incubated up to 12 days at 4° C., RT, or 37° C. Samples were filtered through ultrafiltration spin columns every other day, and retentate and filtrate absorbances measured at 480 nm to determine relative Dox retention or release from conjugates, respectively. As illustrated in FIG. 6 (B), to mimic extended exposure to cells in culture medium, HerDox immobilized on Ni-NTA beads were incubated with bovine serum in DMEM for the indicated times at 37° C. before each sample was pelleted. Absorbance of supernatants (Filtrates) and bead eluates (Retentates) were measured at 480 nm to detect Dox. Relative Dox release or retention in serum is expressed as normalized to control (corresponding sample lacking serum). N=3 per time point.
The inventors tested the stability of HerDox over 12 days under different storage temperatures: 4° C., room temperature, or 37° C. On each day, a sample underwent ultrafiltration, then filtrates and retentates were measured to determine whether any Dox was released from the complex. […] The inventors also examined HerDox stability in serum-containing media at 37° C. […] Dox retention in the conjugate was also assessed by eluting the conjugate from the beads at each time point.

In series [3] the test system is GFP(+) MDA-MB-231 (HER2−) cells. The series is described as follows: Targeting in a mixed cell culture. In kind it is cell-based. The settings on record: HerDox containing 0.5 uM Dox, day 2. The protocol: (§1) FIGS. 9 (A)-(C) illustrates targeting in a mixed cell culture. As illustrated in FIG. 10 (A), equal numbers of MDA-MB-435 and GFP(+) MDA-MB-231 cells were treated with Dox alone (0.5 uM), Her-Dox (containing 0.5 uM Dox), or HerPBK10 (1.2 ug/well, equivalent to HerPBK10 in HerDox). Wells were assayed for GFP fluorescence (to determine relative MDA-MB-231 number) and crystal violet staining (to determine total cell number). As illustrated in FIG. 9 (B), cell survival was determined by calculating the relative doubling time (DT) of experimental (exp) cells normalized by control (con) cells based on the crystal violet stains (total cells) and GFP fluorescence (MDA-MB-231 cells). The DT of MDA-MB-435 was determined by subtracting the DT of MDA-MB-231 from the total cell DT. Relative survival is shown for Day 2 of treatment. As illustrated in FIG. 9 (C), there is stability in cell culture. Aliquots of culture media containing HerDox (after incubation for the indicated times at 37° C.) were electrophoresed on a 2% agarose gel. HerDox incubated at 37° C. in HEPES-buffered saline, lacking serum, was processed in parallel. Dox fluorescence was visualized by UV excitation. Free Dox (Dox alone) is not retained in the gel whereas Dox incorporated in HerDox is. […]

Series [4] has as its system MDA-MB-435 (non-GFP, HER2+) cells. The series is described as follows: Targeting in a mixed cell culture. In kind it is cell-based. The settings on record: HerDox containing 0.5 uM Dox, day 2. As to the method: as §1

B1: HerDox: non-covalent complex of HerPBK10, a small double-stranded nucleic acid and intercalated Dox (conjugate)
chain: LPPRLKEMKSQESAAGSKLVLRCETSSEYSSLRFKWFKNGNELNRKNKPQNIKIQKKPGKSELRINKASLADSGEYMCKVISKLGNDSASANITIVESNEIITGMPASTEGAYVSSESPIRISVSTEGANTSSSTSTSTTGTSHLVKCAEKEKTFCVNGGECFMVKDLSNPSRYLCKCQPGFTGARCTENVPMKVQNQEKAEELYMRRAAMYEEGPPPSYESVVSAAPVAAALGSPFDAPLDPPFVPPRYLRPTGGRNSIRYSELAPLFDTTRVYLVDNKSTDVASLNYQNDHSNFLTTVIQNNDYSPGEASTQTINLDDRSHWGGDLKTILHTNMPNVNEFMFTNKFKARVMVSRLPTKDNQVELKYEWVEFTLPEGNYSETMTIDLMNNAIVEHYLKVGRQNGVLESDIGVKFDTRNFRLGFDPVTGLVMPGVYTNEAFHPDIILLPGCGVDFTHSRLSNLLGIRKRQPFQEGFRITYDDLEGGNIPALLDVDAYQASLKDDTEQGGGGAGGSNSSGSGAEENSNAAAAAMQPVEDMNDHAIRGDTFATRAEEKRAEAEAAAEAAAPAAQPEVEKPQKKPVIKPLTEDSKKRSYNLISNDSTFTQYRSWYLAYNYGDPQTGIRSWTLLCTPDVTCGSEQVYWSLPDMMQDPVTFRSTRQISNFPVVGAELLPVHSKSFYNDQAVYSQLIRQFTSLTHVFNRFPENQILARPPAPTITTVSENVPALTDHGTLPLRNSIGGVQRVTITDARRRTCPYVYKALGIVSPRVLSSRTFKKKKKKKKKK
modifications: left off: small tags and cut ends
notes: non-covalent complex of HerPBK10, a small double-stranded nucleic acid and intercalated Dox
Consider B1, for which the “location of Dox and HerPBK10 during uptake” value in the series with breast cancer cells (30 and 60 min) is listed as “increasing levels of Dox accumulate in the nucleus while the majority of HerPBK10 remains in the cytoplasm”. For the same molecule, in the series on breast cancer cells (15 min of uptake), the “integrity of HerDox during uptake (colocalization of HerPBK10 and Dox)” value is recorded as “still intact”. Besides, the “cell killing by HerDox in presence of free heregulin ligand” value in series [1] was “completely inhibited”. In series [2] (4° C.), this molecule showed a product remaining intact of 100%. The “effect of storage on Dox incorporation” value in series [2] (room temperature and 37° C.) is given as “enhance the incorporation of the drug”. The “GFP (HER2−) cell growth in mixed culture” value in series [3] is reported as “not altered”. Further, the “non-GFP (HER2+) cell proliferation in mixed culture” value in series [4] was “nearly completely reduced”.

Values taken from patent US10391180B2, “Self-assembling complex for targeting chemical agents to cells” (CEDARS-SINAI MEDICAL CENTER, priority 2007, dated 2019).
